# Experimental data as given in paper PMC7183857.
# Where two headings read alike, the source gives them in different places.
# Assays:
# Test in all cases: co-sedimentation
# [1] = target: A14C/E45C disulfide-crosslinked CA tubes (HIV-1)
# [2] = target: A14C/E45C disulfide-crosslinked CA tubes (HIV-1); remark: listed apart in the source
# [3] = target: CA_(14C/45C/E75A) tubes (HIV-1)
# [4] = target: CA_(14C/45C/E213A) tubes (HIV-1)
# [5] = target: CA_(14C/45C/E71A) tubes (HIV-1)
substance,measurement,setting,value
MxB_(1–35)-MBPdi (from UniProt P20592 1-35),percent binding,[1],20%
same,percent binding,[2],80%
same,percent bound,[2],> 90%
same,percent co-pelleted,[2],> 90%
same,binding as percent of WT CA tubes,[3],60 % of WT
same,binding as percent of WT CA tubes,[4],40 % of WT
same,binding as percent of WT CA tubes,[5],60 % of WT
